IntAct's records for PubMed 16628218

Biological target: T1, chio_human CHN2 (UniProt P52757)
T1 sequence: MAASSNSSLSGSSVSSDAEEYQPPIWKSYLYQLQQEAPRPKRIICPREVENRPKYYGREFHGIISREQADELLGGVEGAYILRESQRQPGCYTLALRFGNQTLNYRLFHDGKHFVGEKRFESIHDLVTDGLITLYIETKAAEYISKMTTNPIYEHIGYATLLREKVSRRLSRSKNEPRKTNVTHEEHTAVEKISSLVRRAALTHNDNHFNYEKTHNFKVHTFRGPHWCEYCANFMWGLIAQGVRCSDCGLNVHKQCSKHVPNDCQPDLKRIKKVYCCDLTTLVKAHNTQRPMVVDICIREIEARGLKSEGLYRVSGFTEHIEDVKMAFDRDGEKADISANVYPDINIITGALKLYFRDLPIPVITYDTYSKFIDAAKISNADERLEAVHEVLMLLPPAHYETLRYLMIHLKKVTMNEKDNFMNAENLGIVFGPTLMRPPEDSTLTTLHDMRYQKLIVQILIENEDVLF

Row | Substance | effect of a mutation on the interaction
1 | Ras-related C3 botulinum toxin substrate 1 (Homo sapiens) (from UniProt P63000) G12V | increasing interaction
2 | Ras-related C3 botulinum toxin substrate 1 (Homo sapiens) (from UniProt P63000) T17N | disrupting interaction
